Experimental data as given in PMC11257539.

Target: full-length human VARP with a C-terminal 10xHis tag (human) (UniProt Q96NW4)
Assay: BLI

Sequence of full-length human VARP with a C-terminal 10xHis tag (human) (Q96NW4 whole entry): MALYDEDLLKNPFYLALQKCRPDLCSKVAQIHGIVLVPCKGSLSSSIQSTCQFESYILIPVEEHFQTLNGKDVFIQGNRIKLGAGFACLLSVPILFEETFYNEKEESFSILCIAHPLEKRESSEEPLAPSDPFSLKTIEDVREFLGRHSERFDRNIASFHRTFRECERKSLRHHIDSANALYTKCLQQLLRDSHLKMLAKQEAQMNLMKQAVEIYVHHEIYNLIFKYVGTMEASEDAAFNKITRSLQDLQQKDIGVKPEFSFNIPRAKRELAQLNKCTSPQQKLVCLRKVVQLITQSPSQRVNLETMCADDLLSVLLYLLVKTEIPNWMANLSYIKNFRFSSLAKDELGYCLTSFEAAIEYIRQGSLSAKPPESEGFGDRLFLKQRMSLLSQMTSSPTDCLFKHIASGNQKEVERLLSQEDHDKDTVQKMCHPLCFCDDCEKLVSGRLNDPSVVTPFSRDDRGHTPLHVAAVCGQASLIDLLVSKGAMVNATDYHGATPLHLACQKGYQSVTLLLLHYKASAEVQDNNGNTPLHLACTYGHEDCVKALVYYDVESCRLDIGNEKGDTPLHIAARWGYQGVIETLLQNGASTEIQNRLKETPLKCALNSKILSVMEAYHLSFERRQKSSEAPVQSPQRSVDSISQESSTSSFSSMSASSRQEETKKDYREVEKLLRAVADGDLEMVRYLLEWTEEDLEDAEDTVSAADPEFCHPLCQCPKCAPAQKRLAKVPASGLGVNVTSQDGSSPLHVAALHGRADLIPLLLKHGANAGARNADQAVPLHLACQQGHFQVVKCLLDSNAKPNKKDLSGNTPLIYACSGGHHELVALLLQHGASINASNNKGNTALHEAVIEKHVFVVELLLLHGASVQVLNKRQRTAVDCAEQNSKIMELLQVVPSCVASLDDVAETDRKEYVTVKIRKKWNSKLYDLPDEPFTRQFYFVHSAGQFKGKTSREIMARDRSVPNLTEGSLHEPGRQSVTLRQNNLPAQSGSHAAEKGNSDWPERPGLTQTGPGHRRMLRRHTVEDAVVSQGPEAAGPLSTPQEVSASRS

ka1: 5040 M⁻¹ s⁻¹
ka2: 0.0535 M⁻¹ s⁻¹
kdis1: 0.000363 s⁻¹
kdis2: 0.00891 s⁻¹
Substance: Retromer heterotrimer (VPS26/VPS35/VPS29 subunits) (from UniProt O75436;Q96QK1;Q9UBQ0) (complex)
